Experimental data: paper PMC2907741 (Biochemistry, 2009)
Like-named read-outs stand apart in the source and are kept apart here. Bridge positions count the residues as written; N and C are the ends. Ends that are not written are not given here.

B1: 5 kDa fragment of plasma gelsolin (173-225), D187N (domain or fragment, human)
chain: ATEVPVSWESFNNGNCFILDLGNNIHQWCGSNSNRYERLKATQVSKGIRDNER
modifications: disulfide 16-29
B2: 8 kDa fragment of plasma gelsolin (173-242), D187N (domain or fragment, human)
chain: ATEVPVSWESFNNGNCFILDLGNNIHQWCGSNSNRYERLKATQVSKGIRDNERSGRARVHVSEEGTEPEA
modifications: disulfide 16-29

What was measured:
[1] = molecular target: the molecule itself; assay: thioflavin T fluorescence aggregation assay
[2] = molecular target: the molecule itself; assay: thioflavin T fluorescence aggregation assay; remark: listed apart in the source

Row | Protein | binding result [1] | binding result [2]
1 | B1 | binds | 
2 | B2 |  | binds
